Laboratory results from patent US20250271431A1 (NEW ERA MABS, published 2025).

Target: SARS-CoV-2 Spike protein (D614G, furin-cleavage site destroyed, FKO) on SARS-CoV-2 virus-like particles (VLPs) (SARS-CoV-2, UniProt P0DTC2 14-1273)

B1: hcAb A7.2 (clone A7_2), camelid full length IgG2 heavy chain only antibody (antibody, V domains shown)
VH: DVQLQESGGGLVQPGKSLKLSCAAFGFAFSSTWMHWVRQAPGKGPEWVAFINPGGEKTMHADSVKGRFTISRDDAKNTLYLQMNNLKPEDTAVYYCAIERKDAFSWGQGTQVTVSS
- EC50 (read off the curve): ~400 µg/mL
